60 molecules from US20160333065A1 (ACADEMISCH ZIEKENHUIS LEIDEN H O D N LUMC, published 2016) can be followed below.

As a reminder, the IC50 is the concentration at which inhibition is half-maximal. A higher IC50 goes with a need for much substance.

The target of one test is T1, HLA-B8 (B*0801) (human).
T1 construct: HLA class I on acid-stripped EBV-transformed B cells (B-LCL)
As to the kind of experiment: competition vs FLRGRAC(FI)GL on stripped B-LCL, FACS.
MINLRRLL [PRAME 259-266 MINLRRLL]: the half-inhibitory concentration (IC50) is under 1 µM.
The same measure, in the same setting: then INLRRLLL [PRAME 260-267 INLRRLLL], with under 1 µM; and QMINLRRLLL [PRAME 258-267 QMINLRRLLL], with 1.67 µM.

Another test addresses T2, HLA-B61 (B*4002) (human).
T2 construct: HLA class I on acid-stripped EBV-transformed B cells (B-LCL)
As to the kind of experiment: competition vs GEFGGC(FI)GSV on stripped B-LCL, FACS.
LETFKAVL [PRAME 94-101 LETFKAVL]: the IC50 is under 1 µM.
The molecule RELFPPLFMA [PRAME 50-59 RELFPPLFMA] yielded a 50% inhibitory concentration (IC50) of under 1 µM.

The target in a further test is T3, HLA-B60 (B*4001) (human).
T3 construct: HLA class I on acid-stripped EBV-transformed B cells (B-LCL)
As to the kind of experiment: competition vs KESTC(FI)HLVL on stripped B-LCL, FACS.
Molecule KDEALAIAAL [PRAME 36-45 KDEALAIAAL] yielded a concentration for half-maximal inhibition (IC50) of 2.91 µM.

The target of a further test is T4, HLA-B35 (B*3501) (human).
T4 construct: HLA class I on acid-stripped EBV-transformed B cells (B-LCL)
The test can be described thus: competition vs NPDIVC(FI)YQY on stripped B-LCL, FACS.
On to GACDELFSY [PRAME 186-194 GACDELFSY], for which the half-inhibitory concentration (IC50) came out at 2.6 µM.
The same measure, in the same setting: for LPRELFPPL [PRAME 48-56 LPRELFPPL] the value was under 1 µM.
Still for that read-out and setting: for SPYLGQMINL [PRAME 253-262 SPYLGQMINL] the value was 1.98 µM; for FPPLFMAAF [PRAME 53-61 FPPLFMAAF], under 1 µM.
On the same count and under the same terms, for LPTLAKFSPY [PRAME 246-255 LPTLAKFSPY] the value was 0.11 µM; for LPRELFPPLF [PRAME 48-57 LPRELFPPLF], 1.58 µM.

In the next test the target is T5, HLA-A1 (A*0101) (human).
T5 construct: HLA class I on acid-stripped EBV-transformed B cells (B-LCL)
As to the kind of experiment: competition vs YLEPAC(FI)AKY on stripped B-LCL, FACS.
Take FLSLQCLQALY [PRAME 292-302 FLSLQCLQALY]: the IC50 came out at 1 µM.
With CSQLTTLSFY [PRAME 405-414 CSQLTTLSFY], the IC50 was under 1 µM.
On the same count and under the same terms, for SLQCLQALY [PRAME 294-302 SLQCLQALY] the value was 2 µM; for LSHIHASSY [PRAME 267-275 LSHIHASSY], 1 µM.
Still for that read-out and setting: for YISPEKEEQY [PRAME 275-284 YISPEKEEQY] the value was 3 µM.

For a further test, the target named is T6, HLA-B62 (B*1501) (human).
T6 construct: HLA class I on acid-stripped EBV-transformed B cells (B-LCL)
As to the kind of experiment: competition vs YLGEFSC(FI)TY on stripped B-LCL, FACS.
Turning to LQHLIGLSNL [PRAME 427-436 LQHLIGLSNL], the half-inhibitory concentration (IC50) came to 2.41 µM.
Turning to GQHLHLETF [PRAME 89-97 GQHLHLETF], the concentration for half-maximal inhibition (IC50) was 2.39 µM.
Same read-out and setting: for ALYVDSLFF [PRAME 300-308 ALYVDSLFF] the value was under 1 µM.
On the same count and under the same terms, then LLRHVMNPL [PRAME 316-324 LLRHVMNPL], with 2.56 µM.

A further test addresses T7, HLA-A3 (A*0301) (human).
T7 construct: HLA class I on acid-stripped EBV-transformed B cells (B-LCL)
As to the kind of experiment: competition vs KVFPC(FI)ALINK on stripped B-LCL, FACS.
Molecule CTWKLPTLAK [PRAME 242-251 CTWKLPTLAK] returned a concentration for half-maximal inhibition (IC50) of 0.7 µM.
The molecule SMSVWTSPR (also called PRA16-24; PRA(16-24)) [PRAME 16-24 SMSVWTSPR] displayed an IC50 of under 1 µM.
Same read-out and setting: for CLPLGVLMK [PRAME 80-88 CLPLGVLMK] the value was under 1 µM; for HLIGLSNLTH [PRAME 429-438 HLIGLSNLTH], 4 µM.

In another test the target is T8, HLA-B60 (B*4001) (human).
T8 construct: Acid-stripped B-LCL
As to the kind of experiment: cell competition vs KESTC(FI)HLVL, stripped DKB B-LCL, FACS.
Regarding DEALAIAAL (also called start 37) [PRAME peptide DEALAIAAL], the half-maximal inhibitory concentration (IC50) was 1.55 µM.
The same measure, in the same setting: then RELFPPLFM (also called start 50) [PRAME peptide RELFPPLFM], with 1.48 µM; and KDEALAIAAL (also called start 36) [PRAME peptide KDEALAIAAL], with 2.91 µM.
The same measure, in the same setting: for YEDIHGTLHL (also called start 448) [PRAME peptide YEDIHGTLHL] the value was under 1 µM.

A further test addresses T9, HLA-B35 (B*3501) (human).
T9 construct: Acid-stripped B-LCL
The test can be described thus: cell competition vs NPDIVC(FI)YQY, stripped BVR B-LCL, FACS.
In turn, LPRELFPPL (also called start 48) [PRAME peptide LPRELFPPL] returned a concentration for half-maximal inhibition (IC50) of under 1 µM.
Same read-out and setting: then IPVEVLVDL (also called start 173) [PRAME peptide IPVEVLVDL], with 2.24 µM; and FPPLFMAAF (also called start 53) [PRAME peptide FPPLFMAAF], with under 1 µM; and LPTLAKFSPY (also called start 246) [PRAME peptide LPTLAKFSPY], with under 1 µM.
SPYLGQMINL [PRAME peptide SPYLGQMINL] showed an IC50 of 1.98 µM.
On the same count and under the same terms, then QPFIPVEVL (also called start 170) [PRAME peptide QPFIPVEVL], with 2.83 µM.
Still for that read-out and setting: for EPILCPCFM (also called start 499) [PRAME peptide EPILCPCFM] the value was under 1 µM.
Turning to LPRELFPPLF (also called start 48) [PRAME peptide LPRELFPPLF], the IC50 came out at 1.58 µM.
Still for that read-out and setting: then GACDELFSY (also called start 186) [PRAME peptide GACDELFSY], with 2.6 µM.

For the next test, the target named is T10, HLA-A1 (A*0101) (human).
T10 construct: Acid-stripped B-LCL
As to the kind of experiment: cell competition vs YLEPAC(FI)AKY, stripped CAA B-LCL, FACS.
CSQLTTLSFY (also called start 405) [PRAME peptide CSQLTTLSFY] registered a concentration for half-maximal inhibition (IC50) of over 1 µM.
The molecule LSHIHASSY [PRAME peptide LSHIHASSY] gave a half-maximal inhibitory concentration (IC50) of 1 µM.
The same measure, in the same setting: then SLQCLQALY (also called start 294) [PRAME peptide SLQCLQALY], with 2 µM; and YISPEKEEQY (also called start 275) [PRAME peptide YISPEKEEQY], with 3 µM.
As for GTLHLERLAY (also called start 453) [PRAME peptide GTLHLERLAY], the half-maximal inhibitory concentration (IC50) was found to be 2 µM.
On the same count and under the same terms, then FLSLQCLQALY (also called start 292) [PRAME peptide FLSLQCLQALY], with 1 µM.

The target of the next test is T11, HLA-B62 (B*1501) (human).
T11 construct: Acid-stripped B-LCL
The test can be described thus: cell competition vs YLGEFSC(FI)TY, stripped BSM B-LCL, FACS.
Molecule LLRHVMNPL (also called start 316) [PRAME peptide LLRHVMNPL] returned a concentration for half-maximal inhibition (IC50) of 2.56 µM.
On the same count and under the same terms, then LQHLIGLSNL (also called start 427) [PRAME peptide LQHLIGLSNL], with 2.41 µM; and ALYVDSLFF (also called start 300) [PRAME peptide ALYVDSLFF], with under 1 µM; and VLYPVPLESY (also called start 439) [PRAME peptide VLYPVPLESY], with 1.66 µM.
With GQHLHLETF (also called start 89) [PRAME peptide GQHLHLETF], the half-inhibitory concentration (IC50) turned out to be 2.39 µM.

The target in the next test is T12, HLA-B8 (B*0801) (human).
T12 construct: Acid-stripped B-LCL
The test can be described thus: cell competition vs FLRGRAC(FI)GL, stripped Vavy B-LCL, FACS.
Consider QMINLRRLLL (also called start 258) [PRAME peptide QMINLRRLLL], for which the half-maximal inhibitory concentration (IC50) stood at 1.67 µM.
On the same count and under the same terms, for MINLRRLL (also called start 259) [PRAME peptide MINLRRLL] the value was under 1 µM; for INLRRLLL (also called start 260) [PRAME peptide INLRRLLL], under 1 µM.
Still for that read-out and setting: then YLHARLREL (also called start 462) [PRAME peptide YLHARLREL], with under 1 µM.

For the next test, the target named is T13, HLA-A3 (A*0301) (human).
T13 construct: Acid-stripped B-LCL
The test can be described thus: cell competition vs KVFPC(FI)ALINK, stripped EKR B-LCL, FACS.
Molecule SMSVWTSPR (also called PRA16-24; start 16) [PRAME peptide SMSVWTSPR] had a concentration for half-maximal inhibition (IC50) of under 1 µM.
Consider RLAYLHARLR (also called start 459) [PRAME peptide RLAYLHARLR], for which the half-maximal inhibitory concentration (IC50) stood at 1 µM.
Still for that read-out and setting: then CTWKLPTLAK (also called start 242) [PRAME peptide CTWKLPTLAK], with under 1 µM; and CLPLGVLMK (also called start 80) [PRAME peptide CLPLGVLMK], with under 1 µM; and HLIGLSNLTH (also called start 429) [PRAME peptide HLIGLSNLTH], with 4 µM.

The next test has as its target T14, HLA-B61 (B*4002) (human).
T14 construct: Acid-stripped B-LCL
As to the kind of experiment: cell competition vs GEFGGC(FI)GSV, stripped Swei007 B-LCL, FACS.
Molecule DEALAIAAL (also called start 37) [PRAME peptide DEALAIAAL] came in with an IC50 of under 1 µM.
On the same count and under the same terms, then LETFKAVL (also called start 94) [PRAME peptide LETFKAVL], with under 1 µM; and RELFPPLFMA (also called start 50) [PRAME peptide RELFPPLFMA], with under 1 µM.
Still for that read-out and setting: for RELFPPLFM (also called start 50) [PRAME peptide RELFPPLFM] the value was under 1 µM.
